Laboratory results as given in US20240424062A1 (MEDERIS DIABETES, published 2024).

B1: EU-A992 (peptide)
peptide: HXQGTFTSDYSKYLDXQAAXEFIXWLLQT
modifications: not fully specified; Aib at 2; Glu*16 and Lys*20 cyclized through their side chains to a lactam; Lys(N-omega(1-octyl beta-D-glucuronyl)) at 24; C-terminal amide (NH2)
B2: EU-A391 (peptide)
peptide: HXQGTXTSDYSKYLDXX
modifications: not fully specified; 1-dodecyl alkyl glycoside surfactant on a linker residue (position not given)

What was measured:
Assay in all cases: cell-based or functional assay
[1] = molecular target: glucagon receptor (human, cloned into CHO cells) (human, UniProt P47871 26-477)
glucagon receptor (human, cloned into CHO cells), sequence (P47871 26-477): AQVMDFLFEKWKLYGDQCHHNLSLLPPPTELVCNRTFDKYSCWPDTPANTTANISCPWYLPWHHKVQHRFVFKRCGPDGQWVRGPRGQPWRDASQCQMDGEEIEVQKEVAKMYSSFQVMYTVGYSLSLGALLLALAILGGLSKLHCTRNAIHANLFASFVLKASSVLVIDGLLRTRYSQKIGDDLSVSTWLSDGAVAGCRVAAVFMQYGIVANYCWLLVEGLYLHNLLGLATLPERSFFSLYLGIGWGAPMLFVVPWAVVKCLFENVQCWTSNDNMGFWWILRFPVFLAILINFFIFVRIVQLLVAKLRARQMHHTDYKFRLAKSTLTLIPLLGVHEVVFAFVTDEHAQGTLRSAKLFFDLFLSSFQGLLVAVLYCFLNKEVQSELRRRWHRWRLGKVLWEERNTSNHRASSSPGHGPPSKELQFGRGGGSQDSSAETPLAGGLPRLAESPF

[2] = molecular target: GLP-1 receptor (human, cloned into CHO cells) (human, UniProt P43220 24-463)
[3] = molecular target: T1, GLP-1 receptor (murine cell line) (murine, UniProt O35659 22-463)
T1 sequence (looked up): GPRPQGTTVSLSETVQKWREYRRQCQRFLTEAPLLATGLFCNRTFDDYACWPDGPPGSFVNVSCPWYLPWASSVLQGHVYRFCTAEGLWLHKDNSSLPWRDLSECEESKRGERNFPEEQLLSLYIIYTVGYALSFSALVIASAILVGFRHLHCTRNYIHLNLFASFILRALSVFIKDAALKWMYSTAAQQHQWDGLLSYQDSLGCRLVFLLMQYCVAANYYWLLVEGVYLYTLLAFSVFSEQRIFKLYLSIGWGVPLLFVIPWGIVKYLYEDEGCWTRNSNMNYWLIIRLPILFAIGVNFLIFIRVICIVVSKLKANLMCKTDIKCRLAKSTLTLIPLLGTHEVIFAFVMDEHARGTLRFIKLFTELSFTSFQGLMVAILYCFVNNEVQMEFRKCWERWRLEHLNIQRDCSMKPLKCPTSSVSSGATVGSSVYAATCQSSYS

| Binder | EC50 cAMP (DiscoveRx) [1] [pM] | EC50 cAMP (DiscoveRx) [2] [pM] | EC50, cAMP stimulation in cells (Cerep) [3] [pM] |
| --- | --- | --- | --- |
| B1 | 19 | 9 |  |
| B2 |  |  | 420000 |
